The results in this text go back to paper PMC8254080 (Biochemistry and Biophysics Reports, 2021).

Read-outs that look alike come from different tables or passages of the source.

Series [1] deals with the molecule itself. The experiment in a line: cryo-EM structure.
Series [2] concerns the molecule itself. The experiment in a line: cryo-EM structure. The source holds these as a separate data set.

B1: Shigella MxiH (type 3 needle filament protomer) with N-terminal Strep-tag II and factor Xa cleavage site (natural protein, UniProt P0A223 1-83, looked up)
chain: MSVTVPNDDWTLSSLSETFDDGTQTLQGELTLALDKLAKNPSNPQLLAEYQSKLSEYTLYRNAQSNTVKVIKDVDAAIIQNFR
Turning to B1, the binding result in series [1] is on record as “binds”.

B2: Salmonella PrgI (type 3 needle filament protomer, SPI-1) (natural protein, Salmonella (strain SB905))
chain: MATPWSGYLDDVSAKFDTGVDNLQTQVTEALDKLAAKPSDPALLAAYQSKLSEYNLYRNAQSNTVKVFKDIDAAIIQNFR
For the protein B2, the binding result in series [2] is recorded as “binds”.
